{"source": "patent US20150274820A1", "about": "(ESBATECH AN ALCON BIOMEDICAL RESEARCH UNIT, published 2015)", "key": {"[1]": {"biological_target": "T1, recombinant human VEGF165 (human, UniProt P15692 27-191)", "T1 construct": "mature; Isoform VEGF165 of the entry; also called hVEGF165; hVEGF", "test": "VEGFR2 competition ELISA: hVEGF165 coated on the plate, scFv pre-incubated with human VEGFR2/Fc chimera, bound VEGFR2/Fc detected with anti-human Fc-HRP, OD 450 nm; half-maximal inhibition", "protocol": "After 30-60 min of incubation at room temperature, the mixtures were transferred to the human VEGF₁₆₅ immobilized plate and incubated for 90 min. […] Optical density at 450 nm (OD 450 nm) was measured using a Sunrise microplate reader (Tecan)."}, "[2]": {"biological_target": "recombinant murine VEGF164 (mouse) (UniProt Q00731)", "test": "Biacore SPR, VEGF immobilized, pH 5"}, "[3]": {"biological_target": "recombinant rat VEGF164 (rat) (UniProt P16612)", "test": "Biacore SPR, VEGF immobilized, pH 5"}, "[4]": {"biological_target": "T1, recombinant human VEGF165", "test": "Biacore SPR, VEGF immobilized, pH 5"}, "[5]": {"biological_target": "T1, recombinant human VEGF165", "test": "cell-based or functional assay"}, "[6]": {"biological_target": "T1, recombinant human VEGF165", "test": "cell-based or functional assay", "remark": "listed apart in the source"}, "[7]": {"biological_target": "T1, recombinant human VEGF165", "test": "Biacore SPR, VEGF immobilized, pH 7.4"}, "[8]": {"biological_target": "T1, recombinant human VEGF165", "test": "Biacore SPR, VEGF immobilized, pH 5", "remark": "listed apart in the source"}, "[9]": {"biological_target": "T1, recombinant human VEGF165", "test": "cell-based or functional assay", "remark": "listed apart in the source"}, "recombinant human PLGF": {"biological_target": "T2, recombinant human PLGF (human, UniProt P49763-2 19-149, limits assumed)", "T2 construct": "Negative control; also called PIGF", "T2 sequence (looked up)": "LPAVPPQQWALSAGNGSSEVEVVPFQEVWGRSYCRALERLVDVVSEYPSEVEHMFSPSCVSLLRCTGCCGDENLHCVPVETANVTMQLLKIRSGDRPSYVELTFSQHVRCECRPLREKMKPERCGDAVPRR", "test": "Biacore SPR, PlGF immobilized, pH 5", "protocol": "(§1) In this example, the Biacore-binding ability of scFvs was tested and the binding affinity was measured using the exemplary surface plasmon resonance method with BIAcore™-T100. The VEGF proteins, tested for binding by these scFv candidates, in this example and later examples include purified Escherichia coli-expressed recombinant human VEGF₁₆₅ (PeproTech EC Ltd.), recombinant human VEGF₁₂₁ (PeproTech EC Ltd.), recombinant human VEGF₁₁₀ (ESBATech AG), recombinant murine VEGF₁₆₄ (PeproTech EC Ltd.), recombinant rat VEGF₁₆₄ (Biovision), recombinant rabbit VEGF₁₁₀ (ESBATech AG), and recombinant human PLGF (PeproTech EC Ltd.). For the surface plasmon resonance experiment, carboxymethylated dextran biosensor chips (CM4, GE Healthcare) were activated with N-ethyl-N′-(3-dimethylaminopropyl) carbodiimide hydrochloride and N-hydroxysuccinimide according to the supplier's instructions. Each of the 6 different VEGF forms, as exemplified above, was coupled to 1 of the 4 different flow cells on a CM4 sensor chip using a standard amine-coupling procedure. […] The 4th flow cell of each chip was treated similarly except no proteins were immobilized prior to blocking, and the flow cell was used as in-line reference. […] Dissociation of the anti-VEGF scFv from the VEGF on the CM4 chip was allowed to proceed for 10 min at 25° C. Sensorgrams were generated for each anti-VEGF scFv sample after in-line reference cell correction followed by buffer sample subtraction. The apparent dissociation rate constant (kd), the apparent association rate constant (kₐ) and the apparent dissociation equilibrium constant (KD) were calculated using one-to-one Langmuir binding model with BIAcore T100 evaluation Software version 1.1."}, "[10]": {"biological_target": "T3, recombinant human VEGF121 (human, UniProt P15692 27-147)", "T3 construct": "mature; Isoform VEGF121 of the entry; also called hVEGF121", "T3 sequence (looked up)": "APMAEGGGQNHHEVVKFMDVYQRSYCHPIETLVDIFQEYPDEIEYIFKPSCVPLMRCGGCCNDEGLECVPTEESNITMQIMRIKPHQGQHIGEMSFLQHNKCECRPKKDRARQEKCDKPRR", "test": "Biacore SPR (FIG. 3b legend; differs from Table 9)", "protocol": "In this example, the Biacore-binding ability of scFvs was tested and the binding affinity was measured using the exemplary surface plasmon resonance method with BIAcore™-T100. The VEGF proteins, tested for binding by these scFv candidates, in this example and later examples include purified Escherichia coli-expressed recombinant human VEGF₁₆₅ (PeproTech EC Ltd.), recombinant human VEGF₁₂₁ (PeproTech EC Ltd.), recombinant human VEGF₁₁₀ (ESBATech AG), recombinant murine VEGF₁₆₄ (PeproTech EC Ltd.), recombinant rat VEGF₁₆₄ (Biovision), recombinant rabbit VEGF₁₁₀ (ESBATech AG), and recombinant human PLGF (PeproTech EC Ltd.). For the surface plasmon resonance experiment, carboxymethylated dextran biosensor chips (CM4, GE Healthcare) were activated with N-ethyl-N′-(3-dimethylaminopropyl) carbodiimide hydrochloride and N-hydroxysuccinimide according to the supplier's instructions. Each of the 6 different VEGF forms, as exemplified above, was coupled to 1 of the 4 different flow cells on a CM4 sensor chip using a standard amine-coupling procedure. […] The apparent dissociation rate constant (kd), the apparent association rate constant (kₐ) and the apparent dissociation equilibrium constant (KD) were calculated using one-to-one Langmuir binding model with BIAcore T100 evaluation Software version 1.1."}, "[11]": {"biological_target": "T4, recombinant human VEGF110 (human, UniProt P15692-4 27-136, limits assumed)", "T4 construct": "Made in house; also called hVEGF110", "T4 sequence (looked up)": "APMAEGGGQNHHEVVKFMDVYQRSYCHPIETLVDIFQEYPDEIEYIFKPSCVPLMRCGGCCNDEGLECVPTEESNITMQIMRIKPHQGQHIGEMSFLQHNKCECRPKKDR", "test": "Biacore SPR, VEGF immobilized, pH 5", "protocol": "as §1"}, "[12]": {"biological_target": "T3, recombinant human VEGF121", "test": "Biacore SPR, VEGF immobilized, pH 5", "protocol": "as §1"}, "[13]": {"biological_target": "T1, recombinant human VEGF165", "test": "Biacore SPR, VEGF immobilized, pH 5", "protocol": "as §1", "remark": "listed apart in the source"}, "[14]": {"biological_target": "T1, recombinant human VEGF165", "test": "Biacore SPR (FIG. 4c legend; differs from Table 10)", "protocol": "For the surface plasmon resonance experiment, carboxymethylated dextran biosensor chips (CM4, GE Healthcare) were activated with N-ethyl-N′-(3-dimethylaminopropyl) carbodiimide hydrochloride and N-hydroxysuccinimide according to the supplier's instructions. Each of the 6 different VEGF forms, as exemplified above, was coupled to 1 of the 4 different flow cells on a CM4 sensor chip using a standard amine-coupling procedure. […] The 4th flow cell of each chip was treated similarly except no proteins were immobilized prior to blocking, and the flow cell was used as in-line reference. […] Dissociation of the anti-VEGF scFv from the VEGF on the CM4 chip was allowed to proceed for 10 min at 25° C. Sensorgrams were generated for each anti-VEGF scFv sample after in-line reference cell correction followed by buffer sample subtraction. The apparent dissociation rate constant (kd), the apparent association rate constant (kₐ) and the apparent dissociation equilibrium constant (KD) were calculated using one-to-one Langmuir binding model with BIAcore T100 evaluation Software version 1.1.\nThe present invention also discloses derivatives originating from the lead anti-VEGF scFv candidates, which are mentioned above."}}, "note": "Where “and” joins values, the source holds several entries; their conditions need not be identical. Equal values may be shown once.", "data": [{"binder": "578-max (scFv, also called EP578max; #821) scFv: EIVMTQSPSTLSASVGDRVIITCQASEIIHSWLAWYQQKPGKAPKLLIYLASTLASGVPSRFSGSGSGTQFTLTISSLQPDDFATYYCQNVYLASTNGANFGQGTKLTVLGGGGGSGGGGSGGGGSGGGGSEVQLVESGGGLVQPGGSLRLSCTASGFSLTDYYYMTWVRQAPGKGLEWVGFIDPDDDPYYATWAKGRFTISRDTSKNTVYLQMNSLRAEDTAVYYCAGGDHNSGWGLDIWGQGTLVTVSS", "values": [{"measurement": "EC50 (read off the curve)", "setting": "[1]", "value": "~0.4", "unit": "nM"}, {"measurement": "koff", "setting": "[2]", "value": 0.00044, "unit": "s⁻¹"}, {"measurement": "kon", "setting": "[2]", "value": "1.03e+06", "unit": "M⁻¹ s⁻¹"}, {"measurement": "koff", "setting": "[3]", "value": 0.000528, "unit": "s⁻¹"}, {"measurement": "kon", "setting": "[3]", "value": 883000, "unit": "M⁻¹ s⁻¹"}, {"measurement": "koff", "setting": "[4]", "value": 0.000307, "unit": "s⁻¹"}, {"measurement": "kon", "setting": "[4]", "value": 700000, "unit": "M⁻¹ s⁻¹"}, {"measurement": "Rel. activity in HUVEC assay (EC50Luc[nM]/EC50test[nM]) hVEGF", "setting": "[5]", "value": "0.94 and 1 and 1.2"}, {"measurement": "EC50 in HUVEC assay (FIG. 8d)", "setting": "[6]", "value": 0.103, "unit": "nM"}, {"measurement": "koff", "setting": "[7]", "value": "3.76e-05", "unit": "s⁻¹"}, {"measurement": "kon", "setting": "[7]", "value": "1.58e+06", "unit": "M⁻¹ s⁻¹"}, {"measurement": "koff", "setting": "[8]", "value": 0.000307, "unit": "s⁻¹"}, {"measurement": "kon", "setting": "[8]", "value": 700000, "unit": "M⁻¹ s⁻¹"}, {"measurement": "Rel. activity in HUVEC assay (EC50Luc[nM]/EC50test[nM])", "setting": "[9]", "value": 1.48}, {"measurement": "binding result", "setting": "recombinant human PLGF", "value": "no binding"}, {"measurement": "Kd", "setting": "[10]", "value": 0.095, "unit": "nM"}, {"measurement": "koff", "setting": "[11]", "value": 0.000722, "unit": "s⁻¹"}, {"measurement": "kon", "setting": "[11]", "value": 523000, "unit": "M⁻¹ s⁻¹"}, {"measurement": "koff", "setting": "[12]", "value": 0.000558, "unit": "s⁻¹"}, {"measurement": "kon", "setting": "[12]", "value": 587000, "unit": "M⁻¹ s⁻¹"}, {"measurement": "koff", "setting": "[13]", "value": 0.000307, "unit": "s⁻¹"}, {"measurement": "kon", "setting": "[13]", "value": 700000, "unit": "M⁻¹ s⁻¹"}]}, {"binder": "578 wildtype C-His (scFv, not shown: small tags and cut ends, Rabbit wild type single chain) scFv: DVVMTQTPSSVSAAVGDTVTINCQASEIIHSWLAWYQQKPGQPPKLLIYLASTLASGVPSRFKGSGSGTQFTLTISDLECADAAIYYCQNVYLASTNGANFGGGTEVVVKGGGGSGGGGSGGGGSGGGGSQSVEESGGRLVTPGTPLTLTCTASGFSLTDYYYMTWVRLAPGKGLEYIGFIDPDDDPYYATWAKGRFTISRTSTTVNLKMTSPTTEDTATYFCAGGDHNSGWGLDIWGPGTLVTVSL", "values": [{"measurement": "Kd", "setting": "[4]", "value": 0.2, "unit": "nM"}, {"measurement": "koff", "setting": "[4]", "value": 0.000169, "unit": "s⁻¹"}, {"measurement": "kon", "setting": "[4]", "value": 834000, "unit": "M⁻¹ s⁻¹"}, {"measurement": "kon", "setting": "[14]", "value": 845000, "unit": "M⁻¹ s⁻¹"}]}]}
